Data on one molecule can be found in PMC4653635, “Folding of newly translated membrane protein CCR5 is assisted by the chaperonin GroEL-GroES” (Scientific Reports, 2015).

Holding throughout (conditions): one partner purified
The target in test [1] is T1, Human CC chemokine receptor type 5 (CCR5), C-terminally 6 × His-tagged (human, UniProt P51681 1-352).
T1 construct: CC chemokine receptor type 5 (CCR5), human; 352 amino acids, 40.5 kDa as printed; cloned in pIVEX2.3d; The same construct was made with no chaperonin, with GroEL-GroES (0.04:0.08 uM) or with GroEL alone (0.04 uM) added to the cell-free reaction; these three samples are kept apart as assays; For one gel, BODIPY-labelled lysines were incorporated during translation; also called CCR5 receptor; …
T1 sequence (P51681 whole entry): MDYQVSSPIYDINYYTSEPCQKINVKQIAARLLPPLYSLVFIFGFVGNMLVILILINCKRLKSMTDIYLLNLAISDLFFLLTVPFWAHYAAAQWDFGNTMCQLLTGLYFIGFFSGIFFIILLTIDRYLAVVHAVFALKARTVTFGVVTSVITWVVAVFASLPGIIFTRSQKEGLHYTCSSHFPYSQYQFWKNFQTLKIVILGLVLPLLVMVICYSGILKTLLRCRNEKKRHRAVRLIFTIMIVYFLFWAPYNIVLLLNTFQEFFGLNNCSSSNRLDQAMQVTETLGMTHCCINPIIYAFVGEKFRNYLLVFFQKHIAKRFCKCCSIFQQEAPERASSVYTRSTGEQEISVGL
In words: quartz crystal microbalance (QCM); CCR5 made without added chaperonin; supernatant diluted 20 times and immobilised on a Q-Sense His-tag Capturing Sensor; CCL11 flowed over; 25 °C; 25 mM HEPES, 0.12 M NaCl, 0.2% Brij35, pH 7.6; 1:1 binding model.

Test [2] deals with T1, Human CC chemokine receptor type 5 …. In words: quartz crystal microbalance (QCM); CCR5 made with GroEL alone added to the cell-free reaction; supernatant diluted 20 times and immobilised on a Q-Sense His-tag Capturing Sensor; CCL11 flowed over; 25 °C; 25 mM HEPES, 0.12 M NaCl, 0.2% Brij35, pH 7.6; 1:1 binding model.
Test [3] has the same target. Put plainly: quartz crystal microbalance (QCM); CCR5 made with GroEL-GroES added to the cell-free reaction; supernatant diluted 20 times and immobilised on a Q-Sense His-tag Capturing Sensor; CCL11 flowed over; 25 °C; 25 mM HEPES, 0.12 M NaCl, 0.2% Brij35, pH 7.6; 1:1 binding model.

B1: eotaxin (CCL11) (ligand)
chain: not shown
notes: eotaxin (CCL11)
In test [1], B1 showed a Kd of 0.097 µM, a koff of 0.00046 s⁻¹ and a kon of 4700 M⁻¹ s⁻¹. Besides, in test [2], binding was characterised by a dissociation constant (Kd) of 0.055 µM, the koff was found to be 0.00025 s⁻¹ and the kon stood at 4600 M⁻¹ s⁻¹. Also, in test [3], the Kd turned out to be 0.044 µM, the koff was determined as 0.0002 s⁻¹ and the kon stood at 4500 M⁻¹ s⁻¹.
